Experimental data from patent publication US12258605B2, “Alkane oxidation by modified hydroxylases” (The California Institute of Technology, priority 2005, dated 2025).

B1: 35-E11: P450 BM-3 variant, SEQ ID NO:7: 53-5H substitutions plus E464G and I710T (protein)
chain: TIKEMPQPKTFGELKNLPLLNTDKPVQALMKIADELGEIFKFEAPGCVTRYLSSQRLIKEACDESRFDKNLSQALKFFRDFSGDGLFTSWTHEINWKKAHNILLPSFSQQAMKGYHAMMVDIAVQLVQKWERLNADEHIEVSEDMTRLTLDTIGLCGFNYRFNSFYRDQPHPFIISMVRALDEVMNKLQRANPDDPAYDENKRQCQEDIKVMNDLVDKIIADRKARGEQSDDLLTQMLNGKDPETGEPLDDGNISYQIITFLIAGHETTSGLLSFALYFLVKNPHVLQKVVEEAARVLVDPVPSYKQVKQLKYVGMVLNEALRLWPTFPAFSLYAKEDTVLGGEYPLEKGDEVMVLIPQLHRDKTIWGDDVEEFRPERFENPSAIPQHAFKPFGNGQRACIGQQFALHEATLVLGMMLKHFDFEDHTNYELDIKETLTLKPEGFVVKAKSKKIPLGGIPSPSTGQSAKKVRKKAENAHNTPLLVLYGSNMGTAEGTARDLADIAMSKGFAPQVATLDSHAGNLPREGAVLIVTASYNGHPPDNAKQFVDWLDQASADEVKGVRYSVFGCGDKNWATTYQKVPAFIDETLAAKGAENIADRGEADASDDFEGTYEEWREHMWSDVAAYFNLDIENSEDNKSTLSLQFVDSAADMPLAKMHGAFSTNVVASKELQQPGSARSTRHLEIELPKEASYQEGDHLGVIPRNYEGTVNRVTARFGLDASQQIRLEAEEEKLAHLPLAKTVSVEELLQYVELQDPVTRTQLRAMAAKTVCPPHKVELEALLEKQAYKEQVLAKRLTMLELLEKYPACEMKFSEFIALLPSIRPRYYSISSSPRVDEKQASITVSVVSGEAWSGYGEYKGIASNYLAELQEGDTITCFISTPQSEFTLPKDPETPLIMVGPGTGVAPFRGFVQARKQLKEQGQSLGEAHLYFGCRSPHEDYLYQEELENAQSEGIITLHTAFSRMPNQPKTYVQHVMEQDGKKLIELLDQGAHFYICGDGSQMAPAVEATLMKSYADVHQVSEADARLWLQQLEEKGRYAKDVWAG
modifications: mutant P450 35-E11 protein sequence
B2: P450PMO: P450 BM-3 variant, SEQ ID NO:125; 7-7 plus G443A and D698G; propane monooxygenase (protein)
chain: TIKEMPQPKTFGELKNLPLLNTDKPVQALMKIADELGEIFKFEAPGCVTRYISSQRLIKEACDESRFDKNLSQELKFFRDFGGDGLFTSWTHEINWKKAHNILLPSFSQQAMKGYHAMMVDIAVQLVQKWERLNADEHIEVSEDMTRLTLDTIGLCGFNYRFNSFYRDQPHPFIISMVRALDEVMNKPQRANPDDPAYDENKRQCQEDIKVMNDLVDKIIADRKARGEQSDDLLTQMLNGKDPETGEPLDDGNISYQIITFLIAGHETTSGLLSFALYFLVKNPHVLQKVVEEAARVLVDPVPSYKQVKQLKYVGMVLNEALRLWPTFPAFSLYAKEDTVLGGEYPLEKGDEVMVLIPQLHRDKTVWGDDVEEFRPERFENPSAIPQHAFKPFGNGQRACIGQQFALHEATLVLGMMLKHFDFEDHTNYELDIKETLTLKPEAFVVKAKSKKIPLGGIPSPSTGQSAKKVRKKAENAHNTPLLVLYGSNMGTAEGTARDLADIAMSKGFAPQVATLDSHAGNLPREGAVLIVTASYNGHPPDNAKQFVDWLDQASADEVKGVRYSVFGCGDKNWATTYQKVPAFIDETLAAKGAENIADRGEADASDDFEGTYEEWREHMWSDVAAYFNLDIENSEDNKSTLSLQFVDSAADMPLAKMHGAFSTNVVASKELQQPGSARSTRHLEIELPKEASYQEGGHLGVIPRNYEGTVNRVTARFGLDASQQIRLEAEEEKLAHLPLAKTVSVEELLQYVELQDPVTRTQLRAMAAKTVCPPHKVELEALLEKQAYKEQVLAKRLTMLELLEKYPACEMKFSEFIALLPSIRPRYYSISSSPRVDEKQASITVSVVSGEAWSGYGEYKGIASNYLAELQEGDTITCFISTPQSEFTLPKDPETPLIMVGPGTGVAPFRGFVQARKQLKEQGQSLGEAHLYFGCRSPHEDYLYQEELENAQSEGIITLHTAFSRMPNQPKTYVQHVMEQDGKKLIELLDQGAHFYICGDGSQMAPAVEATLMKSYADVHQVSEADARLWLQQLEEKGRYAKDVWAG
modifications: Mutant P450PMO protein sequence
notes: 7-7 plus G443A and D698G; propane monooxygenase

Legend:
[1] = NADPH oxidation/consumption rates and coupling efficiency; format: biochemical
Experimental: NADPH oxidation rates were measured over 20 s at 25° C. using a BioSpec-1601 UV-Vis spectrophotometer (Shimadzu, Columbia, MD) and 1 cm pathlength cuvettes. […] The reaction was initiated by the addition of NADPH and the decrease in absorption at 340 nm was monitored. NADPH consumption rates were also measured without substrate (see Table 2).
The coupling efficiency is estimated from product formation rate/NADPH oxidation rate. In general, NADPH oxidation rates cannot be measured on the same time scale as ethanol formation rates.
For the data shown in Table 6 the initial NADPH consumption rates were measured over 15 seconds at 340 nm as nmol NADPH/min/nmol protein. Octane reactions contained 100 nM P450, 166 uM NADPH, and 4 mM octane in 1% ethanol and potassium phosphate buffer. […] Errors are at most 10%. Initial rates were measured by GC over 1 minute as nmol total products/min/nmol protein. Octane reactions contained 100 nM P450, 500 uM NADPH, and 4 mM octane in 1% ethanol and potassium phosphate buffer. Propane reactions contained 1 uM P450, 500 uM NADPH, and propane-saturated potassium phosphate buffer. Coupling was determined by ratio of product formation rate to NADPH consumption rate. Total turnover numbers were determined as nmol product/nmol enzyme. Octane reactions contained 10-25 nM P450, 500 uM NADPH, and 4 mM octane in 1% ethanol and potassium phosphate buffer. Propane reactions contained 10-25 nM protein, potassium phosphate buffer saturated with propane, and an NADPH regeneration system containing 100 uM NADP+, 2 U/mL isocitrate dehydrogenase, and 10 mM isocitrate.
For Table 13, total turnover numbers were determined as nmol product/nmol protein. […] The rates of product formation were measured by GC over 20 s as nmol total products/min/nmol protein. The reactions contained P450 (200 nM), NADPH (500 μM) and octane (2 mM) in ethanol (2%) and potassium phosphate buffer (0.1 M, pH 8.0). The rates of NADPH oxidation were measured over 20 s at 340 nm as nmol NADPH/min/nmol protein. The reactions contained P450 (200 nM), NADPH (160 μM), and octane (2 mM) in ethanol (2%) and potassium phosphate buffer (0.1 M, pH 8.0). The background NADPH oxidation rate (without substrate) rate was 220/min. The coupling efficiency is the ratio of product formation rate to NADPH oxidation rate.
The activity of BM-3-A328V on CM and other substrates such as HME, DME, and propane was further investigated by measuring product formation rate, cofactor consumption and coupling efficiency (Table 14). This mutant was also found to be capable to hydroxylate ethane to ethanol, although only for a total of about 5-10 turnovers. In Table 14 “consumption” rates are expressed as nmol NADPH/nmol enzyme/min and “product formation” rates are expressed as nmol product/nmol enzyme/min.

[2] = Absorption spectra, spin shift upon incubation with substrate; format: binding; conditions: 3 uM purified P450; incubation with ethane or octane
Experimental: The absorption spectra for 53-5H and 35-E11 were taken using a 3 uM solution of purified P450 in a quartz cuvette. Upon incubation with ethane, no shift in equilibrium from low- (Amax at 418 nm) to high-spin (Amax at 390 nm) configuration of the ferric P450 was observed.

[3] = Halomethane reactions (formaldehyde, PFBHA, GC-ECD): bromomethane; format: biochemical
Experimental: (§1) Halomethane reactions: Reactions with chloromethane, bromomethane, and iodomethane were carried out in 1 mL-scale using halomethane-saturated buffer (100 mM phosphate pH 8.0) and 50-500 nM purified protein. 900 μL buffer were added with protein, incubated for 15 seconds, and then added with 100 μL NADPH regeneration solution (100 units/mL IDH, 70 mg/mL isocitrate, 1.5 mg/ml NADP+). Solution were sealed and stirred for 30 minutes at 25° C. To reduce background levels of formaldehyde to a minimum, buffers were prepared using HPLC-grade water and autoclaved twice prior to use. Formaldehyde concentration in the reaction solutions was determined through derivatization with o-(2,3,4,5,6-pentafluorobenzyl)hydroxylamine hydrochloride (PFBHA) and gas chromatography. […] Organic phase was removed, diluted 1/100 v/v, and analyzed on a Shimadzu GC-17A gas chromatograph. […] Quantification was carried out using a calibration curve and solutions at known concentration of formaldehyde. […]
(§2) Along with activity on propane, P450PMO also hydroxylates ethane (TTN˜2,500), despite ethane's higher C—H bond energy (101.0 kcal mol^−1 versus 98.6 kcal mol^−1 for propane). […] Reactions with purified P450 variants and the halomethanes were analyzed for formaldehyde formation (FIG. 42). […] Activity on chloromethane was detected at lower levels (0.5-1% of propane activity) and in fewer P450 variants. […]

[4] = Halomethane reactions (formaldehyde, PFBHA, GC-ECD): iodomethane; format: biochemical; conditions: formaldehyde formation
Experimental: as §1, §2

| Molecule | Coupling efficiency ([1]; Octane) [%] | NADPH oxidation rate ([1]; ethane) [min⁻¹] | Coupling efficiency ([1]; ethane, product formation rate/NADPH oxidation rate) [%] | NADPH oxidation rate ([1]; no substrate) [min⁻¹] | NADPH oxidation rate ([1]; octane, 1% ethanol) [min⁻¹] | Coupling efficiency ([1]; propane) [%] | NADPH oxidation rate ([1]; propane) [min⁻¹] | shift from low- to high-spin ferric P450 [2] | turnover rates, halomethane dehalogenase activities ([3]; CH3Cl, CH3Br, CH3I, estimated from 30 minute-reactions) | bromomethane dehalogenase activity ([3]; formaldehyde formation) | iodomethane dehalogenase activity [4] |
| --- | --- | --- | --- | --- | --- | --- | --- | --- | --- | --- | --- |
| B1 | 64 | ~520 | 0.08 | 390 | 660 | 26 | 800 | behaved identically |  |  |  |
| B2 |  |  |  |  |  |  |  |  | 0.5-5 min^−1 | 1-5 % of the propane activity | could be detected |
